From IntAct's records for PubMed 28062662

B1: Glutaryl-CoA dehydrogenase, mitochondrial (Homo sapiens), Q92947 (parent)
chain: MALRGVSVRLLSRGPGLHVLRTWVSSAAQTEKGGRTQSQLAKSSRPEFDWQDPLVLEEQLTTDEILIRDTFRTYCQERLMPRILLANRNEVFHREIISEMGELGVLGPTIKGYGCAGVSSVAYGLLARELERVDSGYRSAMSVQSSLVMHPIYAYGSEEQRQKYLPQLAKGELLGCFGLTEPNSGSDPSSMETRAHYNSSNKSYTLNGTKTWITNSPMADLFVVWARCEDGCIRGFLLEKGMRGLSAPRIQGKFSLRASATGMIIMDGVEVPEENVLPGASSLGGPFGCLNNARYGIAWGVLGASEFCLHTARQYALDRMQFGVPLARNQLIQKKLADMLTEITLGLHACLQLGRLKDQDKAAPEMVSLLKRNNCGKALDIARQARDMLGGNGISDEYHVIRHAMNLEAVNTYEGTHDIHALILGRAITGIQAFTASK
partner: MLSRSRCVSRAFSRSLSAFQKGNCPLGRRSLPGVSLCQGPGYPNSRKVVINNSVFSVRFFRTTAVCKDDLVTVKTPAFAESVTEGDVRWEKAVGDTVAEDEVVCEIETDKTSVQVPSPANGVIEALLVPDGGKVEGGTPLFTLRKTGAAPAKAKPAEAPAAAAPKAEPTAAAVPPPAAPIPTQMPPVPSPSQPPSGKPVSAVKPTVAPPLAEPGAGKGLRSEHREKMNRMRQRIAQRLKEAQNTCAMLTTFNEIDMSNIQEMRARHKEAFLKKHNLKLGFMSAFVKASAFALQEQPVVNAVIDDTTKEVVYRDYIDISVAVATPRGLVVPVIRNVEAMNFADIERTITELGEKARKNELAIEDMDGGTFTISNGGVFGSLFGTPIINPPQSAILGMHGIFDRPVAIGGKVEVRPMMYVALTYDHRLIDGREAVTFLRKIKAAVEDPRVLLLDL
B2: Glutaryl-CoA dehydrogenase, mitochondrial (Homo sapiens), Q92947 (parent)
chain: B1 chain
partner: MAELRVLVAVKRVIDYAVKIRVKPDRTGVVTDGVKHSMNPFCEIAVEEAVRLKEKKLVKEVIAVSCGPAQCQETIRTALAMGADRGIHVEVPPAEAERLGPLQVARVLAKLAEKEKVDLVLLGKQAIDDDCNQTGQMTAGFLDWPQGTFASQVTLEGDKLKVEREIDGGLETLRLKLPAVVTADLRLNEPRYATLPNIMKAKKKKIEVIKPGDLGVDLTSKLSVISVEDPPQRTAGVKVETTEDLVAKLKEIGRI

Variants of: B1
Details: with odo2_human DLST

Variant	effect of a mutation on the interaction
Y155H	decreasing interaction strength
R88C	increasing interaction strength
E90K	increasing interaction strength
Y113H	decreasing interaction strength
R227P	decreasing interaction strength
M263V	increasing interaction strength
P248L	increasing interaction strength
G244C	increasing interaction strength
R355H	decreasing interaction strength
P278S	increasing interaction strength
P217L	decreasing interaction strength
S119L	increasing interaction strength
G117R	increasing interaction strength
G101R	decreasing interaction strength
R161Q	increasing interaction strength
C115Y	increasing interaction strength
R94L	increasing interaction strength
W50C	increasing interaction strength

Variants of: B2
Details: with etfb_human ETFB

Variant	effect of a mutation on the interaction
R355H	increasing interaction strength
G244C	increasing interaction strength
P248L	increasing interaction strength
M263V	increasing interaction strength
P278S	increasing interaction strength
